Data reported in patent US20260055186A1 (REPERTOIRE IMMUNE MEDICINES, published 2026).
Like-named read-outs stand apart in the source and are kept apart here.

What was measured:
[1] = biological target: T1, human CD8 on human T cells (human, UniProt P01732 22-235); test: flow cytometry on human CD8+ T cells, titration
T1 construct: whole, on cells; the antibodies were raised against human CD8 alpha; also called CD8 on human CD8+ T cells; hCD8
Experimental: (§1) The 16 above-referenced humanized 03A01-derived anti-CD8 antibodies were screened for their ability to bind human CD8 by evaluating binding to CD8⁺ T cells. The non-humanized parent (“03-Parent”) and the non-humanized parent comprising a heavy chain D64E liability mutation (“03-Parent-VH-D64E”) were used as controls. […] Cells were washed with 1×phosphate buffered saline (PBS) containing 1 mg/mL bovine serum albumin (PBS/BSA) and then stained with a 1:100 dilution of DyLight650-conjugated anti-human IgG H+L polyclonal antibody (ThermoFisher cat. no. Sa5-10129) in PBS/BSA. Following a 20-30 min incubation at 4° C., the cells were washed once with PBS/BSA, and then resuspended in PBS/BSA for analysis on a FACSCelesta using Diva software (BD Biosciences). The resulting data were analyzed using FlowJo. Data were quantified and reported as Max fluorescence intensity (MFI) of human IgG-Fc. […] Complete replacement of the LCDR1 (antibodies comprising VK4) eliminated binding to the CD8⁺ T cells.
(§2) The binding affinities of five of the above-referenced humanized anti-CD8 antibodies to human CD8 were determined by evaluating binding to CD8 human T cells using the method described above. Binding to human CD8+ T cells was tested at 7 serial 5-fold dilutions of each humanized 03A01 variant (from 50 nM to 3.2 pM). The resulting data were analyzed using FlowJo.

[2] = biological target: T1, human CD8 on human T cells; test: flow cytometry on human CD8+ T cells, titration, apparent KD
Experimental: as §1, §2

[3] = biological target: T2, human CD8α/β (human, UniProt P01732 22-182; P10966 22-170); test: SPR, antibody captured on Protein A chip, hCD8α/β as analyte
T2 construct: Soluble heterodimer used in SPR and in the Carterra binning (there printed only as CD8α/β); also called hCD8α/β
T2 sequence (P01732 22-182, chain 1 of 2): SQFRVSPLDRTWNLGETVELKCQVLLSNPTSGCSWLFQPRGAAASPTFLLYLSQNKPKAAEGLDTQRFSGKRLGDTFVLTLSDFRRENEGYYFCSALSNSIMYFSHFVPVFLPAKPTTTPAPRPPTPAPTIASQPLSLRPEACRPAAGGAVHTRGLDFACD
T2 sequence (P10966 22-170, chain 2 of 2): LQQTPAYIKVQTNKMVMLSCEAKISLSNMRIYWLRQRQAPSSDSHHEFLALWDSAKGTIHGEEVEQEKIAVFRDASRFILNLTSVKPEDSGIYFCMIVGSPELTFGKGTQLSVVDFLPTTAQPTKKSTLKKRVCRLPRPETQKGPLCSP
Experimental: (§3) The binding affinities of six of the humanized anti-CD8 antibodies to human CD8 were also determined by surface plasmon resonance (SPR). Briefly, equilibrium dissociation constants for human CD8α/β were determined using a real-time SPR biosensor using a Protein A Sensor Chip (Cytiva) to capture purified anti-CD8 monoclonal antibodies at a concentration of 0.5 nM. SPR binding studies were performed in a buffer composed of Phosphate buffered saline, pH 7.2 containing 0.05% v/v Surfactant P20 (PBS-P20 buffer). Different concentrations of hCD8α/β prepared in PBS-P20 running buffer (ranging from 500 nM to 7.8 nM, 2-fold dilutions) were injected over the anti-CD8 monoclonal antibody captured surface. Association of hCD8α/β to the captured monoclonal antibody was monitored for 400 seconds and the dissociation of hCD8α/β in PBS-P20 running buffer was monitored for 600 sec. All of the binding kinetics experiments were performed at 25° C. Kinetic association (kₐ) and dissociation (kd) rate constants were determined by fitting the real-time sensorgrams to a 1:1 binding model using Scrubber 2.0c curve fitting software.

[4] = biological target: T1, human CD8 on human T cells; test: flow cytometry on human CD8+ T cells, titration, apparent KD; remark: listed apart in the source
Experimental: (§4) The 24 humanized 02A01-derived anti-CD8 antibodies (excluding 02A01-VK3(D30E/N35Q)) were screened for their ability to bind human CD8 by evaluating binding to CD8+ T cells. The non-humanized parent (“02-Parent”) and the non-humanized parent comprising a heavy chain M39L liability mutation (“02-Parent-VH-M39L”) were used as controls. […] Cells were washed with 1×phosphate buffered saline (PBS) containing 1 mg/mL bovine serum albumin (PBS/BSA) and then stained with a 1:100 dilution of DyLight650-conjugated anti-human IgG H+L polyclonal antibody (ThermoFisher cat. no. Sa5-10129) in PBS/BSA. Following a 20-30 min incubation at 4° C., the cells were washed once with PBS/BSA, and then resuspended in PBS/BSA for analysis on a FACSCelesta using Diva software (BD Biosciences). The resulting data were analyzed using FlowJo. Data were quantified and reported as Max fluorescence intensity (MFI) of human IgG-Fc. […] Complete replacement of the HCDR1 (antibodies comprising VH5) eliminated binding to the CD8+ T cells.
(§5) Binding to human CD8+ T cells was tested at 7 serial 5-fold dilutions of each tested humanized 02A01 variant (from 50 nM to 3.2 pM). The resulting data were analyzed using FlowJo.

[5] = biological target: T2, human CD8α/β; test: SPR, antibody captured on Protein A chip, hCD8α/β as analyte, 1:1 fit
Experimental: as §3

[6] = biological target: T1, human CD8 on human T cells; test: flow cytometry on human CD8+ T cells, titration; remark: listed apart in the source
Experimental: as §4, §5

T1 sequence (P01732 22-235): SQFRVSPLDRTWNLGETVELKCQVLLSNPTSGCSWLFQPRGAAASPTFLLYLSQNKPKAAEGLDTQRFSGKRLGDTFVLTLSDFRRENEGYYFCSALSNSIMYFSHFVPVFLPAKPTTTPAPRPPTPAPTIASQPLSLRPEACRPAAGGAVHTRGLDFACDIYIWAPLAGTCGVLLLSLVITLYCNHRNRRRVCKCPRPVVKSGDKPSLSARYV

Fold Change to Parental Apparent KD [1] [fold] | Kd [2] [nM] | Fold Change to Parental Calculated KD [3] [fold] | Kd [4] [nM] | Kd [5] [nM] | Fold Change to Parental Apparent KD [6] [fold] | Maximum CD8+ T cell Binding (MFI) [6] [MFI] | Binder
1.7 | 1.6 | – | – | – | – | – | humanized 03A01-VH1-VK3 (antibody, human IgG1, V domains shown, human IgG1 format; also called 03-VH1/VK3) VH: EVQFQESGPGLVKPSQTLSLTCTVTGYSITSDFAWNWIRQPPGKELEWMGYISYSGDTNYNPSLRSRITISRDTSKNQFSLKLSSVTAADTATYYCTIRGYYTDSAFVFWGQGTLVTVSS VL: DIQMTQSPSTLSASVGDRVTITCKASDHINNWLAWYQQKPGKAPKLLISGATSLETGVPSRFSGSGSGLEYTLTISSLQPDDFATYYCQQYWNSPFTFGQGTKLEIK
2.1 | 1.91 | – | – | – | – | – | humanized 03A01-VH2-VK3 (antibody, human IgG1, V domains shown, human IgG1 format; also called 03-VH2/VK3) VH: EVQFQESGPGLVKPSQTLSLTCTVSGYSITSDFAWNWIRQPPGKGLEWMGYISYSGDTNYNPSLRSRITISRDTSKNQFSLKLSSVTAADTAVYYCTIRGYYTDSAFVFWGQGTLVTVSS VL: DIQMTQSPSTLSASVGDRVTITCKASDHINNWLAWYQQKPGKAPKLLISGATSLETGVPSRFSGSGSGLEYTLTISSLQPDDFATYYCQQYWNSPFTFGQGTKLEIK
– | – | 1.71 | 0.058 | 15.9 | 1.02 | 2620 | humanized 02A01-VH6-VK1 (antibody, human IgG1, V domains shown, human IgG1 format; also called 02-VH6/VK1) VH: EVQLVQSGAEVKKPGATVKISCKASGYTFTDFTMHWVQQAPGKGLEWIGLVNPNNGGNIYAEKFQGRVTLTVDTSTSTAYMELSSLRSEDTAVYYCGRVPLYTSHGMDYWGQGTLVTVSS VL: EIVLTQSPATLSVSPGERATISCRASESVDSYDINSMHWYQQKPGQPPRLLIYRASHLQSGIPARFSGSGSRTDFTLTISSVEPEDFATYYCQQSNEDPLTFGQGTKLEIK
– | – | 2.12 | 0.089 | 19.6 | 1.51 | 2540 | humanized 02A01-VH6-VK3 (antibody, human IgG1, V domains shown, human IgG1 format; also called 02-VH6/VK3) VH: EVQLVQSGAEVKKPGATVKISCKASGYTFTDFTMHWVQQAPGKGLEWIGLVNPNNGGNIYAEKFQGRVTLTVDTSTSTAYMELSSLRSEDTAVYYCGRVPLYTSHGMDYWGQGTLVTVSS VL: EIVLTQSPATLSLSPGERATISCRASESVDSYDINSMHWYQQKPGQAPRLLIYRASHLQSGIPARFSGSGSRTDFTLTISSLEPEDFATYYCQQSNEDPLTFGQGTKLEIK

Second part, the binder before the results:

Binder | Fold Change to Parental Apparent KD [1] [fold] | Kd [2] [nM] | Fold Change to Parental Calculated KD [3] [fold] | Kd [4] [nM] | Kd [5] [nM] | Fold Change to Parental Apparent KD [6] [fold] | Maximum CD8+ T cell Binding (MFI) [6] [MFI]
humanized 03A01-VH2-VK2 (antibody, human IgG1, V domains shown, human IgG1 format; also called 03-VH2/VK2) VH: EVQFQESGPGLVKPSQTLSLTCTVSGYSITSDFAWNWIRQPPGKGLEWMGYISYSGDTNYNPSLRSRITISRDTSKNQFSLKLSSVTAADTAVYYCTIRGYYTDSAFVFWGQGTLVTVSS VL: DIQMTQSPSTLSVSVGDRVTITCKASDHINNWLAWYQQKPGKAPKLLISGATSLETGVPSRFSGSGSGLEYTLTISSLQPDDFATYYCQQYWNSPFTFGQGTKLEIK | 2 | 1.84 | – | – | – | – | –
humanized 02A01-VH6-VK2 (antibody, human IgG1, V domains shown, human IgG1 format; also called 02-VH6/VK2) VH: EVQLVQSGAEVKKPGATVKISCKASGYTFTDFTMHWVQQAPGKGLEWIGLVNPNNGGNIYAEKFQGRVTLTVDTSTSTAYMELSSLRSEDTAVYYCGRVPLYTSHGMDYWGQGTLVTVSS VL: EIVLTQSPATLSVSPGERATISCRASESVDSYDINSMHWYQQKPGQAPRLLIYRASHLQSGIPARFSGSGSRTDFTLTISSVEPEDFATYYCQQSNEDPLTFGQGTKLEIK | – | – | 1.79 | 0.096 | 16.6 | 1.68 | 2770
humanized 02A01-VH3-VK3 (antibody, human IgG1, V domains shown, human IgG1 format; also called 02-VH3/VK3) VH: EVQLVQSGAEVKKPGATLKISCKASGYTFTDFTMHWVQQAPGKGLEWIGLVNPNNGGNIYAEKFQGRATLTVDTSTSTAYMELSSLRSEDTSVYYCGRVPLYTSHGMDYWGQGTLVTVSS VL: EIVLTQSPATLSLSPGERATISCRASESVDSYDINSMHWYQQKPGQAPRLLIYRASHLQSGIPARFSGSGSRTDFTLTISSLEPEDFATYYCQQSNEDPLTFGQGTKLEIK | – | – | 2.37 | 0.09 | 22 | 1.58 | 2540
